In patent US20230074436A1 (DENALI THERAPEUTICS, published 2023):
No end group written: not given here. *: point of attachment. Biotin = O=C1N[C@H]2[C@H](CS[C@H]2CCCCC(=O)*)N1

Key:
asyn_113-127 [1] = molecular target: T1, asyn_113-127 (human); test: Ala-scan peptide ELISA, row E, run 2
T1 construct: also called pep1
T1 peptide: Biotin-LEDMPVDPDNEAYEM

asyn_113-127_113A [2] = molecular target: T2, asyn_113-127_113A (human); test: Ala-scan peptide ELISA, row E, run 2
T2 construct: substitution is already in the entry; also called pep2
T2 peptide: Biotin-AEDMPVDPDNEAYEM

asyn_113-127_114A [3] = molecular target: T3, asyn_113-127_114A (human); test: Ala-scan peptide ELISA, row E, run 2
T3 construct: substitution is already in the entry; also called pep3
T3 peptide: Biotin-LADMPVDPDNEAYEM

asyn_113-127_115A [4] = molecular target: T4, asyn_113-127_115A (human); test: Ala-scan peptide ELISA, row E, run 2
T4 construct: substitution is already in the entry; also called pep4
T4 peptide: Biotin-LEAMPVDPDNEAYEM

asyn_113-127_116A = molecular target: T5, asyn_113-127_116A (human); test: Ala-scan peptide ELISA, row E, run 2
T5 construct: substitution is already in the entry; also called pep5
T5 peptide: Biotin-LEDAPVDPDNEAYEM

asyn_113-127_117A [5] = molecular target: T6, asyn_113-127_117A (human); test: Ala-scan peptide ELISA, row E, run 2
T6 construct: substitution is already in the entry; also called pep6
T6 peptide: Biotin-LEDMAVDPDNEAYEM

asyn_113-127_118A [6] = molecular target: T7, asyn_113-127_118A (human); test: Ala-scan peptide ELISA, row E, run 2
T7 construct: substitution is already in the entry; also called pep7
T7 peptide: Biotin-LEDMPADPDNEAYEM

asyn_113-127_119A [7] = molecular target: T8, asyn_113-127_119A (human); test: Ala-scan peptide ELISA, row E, run 2
T8 construct: substitution is already in the entry; also called pep8
T8 peptide: Biotin-LEDMPVAPDNEAYEM

asyn_113-127_120A [8] = molecular target: T9, asyn_113-127_120A (human); test: Ala-scan peptide ELISA, row E, run 2
T9 construct: substitution is already in the entry; also called pep9
T9 peptide: Biotin-LEDMPVDADNEAYEM

asyn_113-127_121A [9] = molecular target: T10, asyn_113-127_121A (human); test: Ala-scan peptide ELISA, row E, run 2
T10 construct: substitution is already in the entry; also called pep10
T10 peptide: Biotin-LEDMPVDPANEAYEM

asyn_113-127_122A [10] = molecular target: T11, asyn_113-127_122A (human); test: Ala-scan peptide ELISA, row E, run 2
T11 construct: substitution is already in the entry; also called pep11
T11 peptide: Biotin-LEDMPVDPDAEAYEM

asyn_113-127_123A [11] = molecular target: T12, asyn_113-127_123A (human); test: Ala-scan peptide ELISA, row E, run 2
T12 construct: substitution is already in the entry; also called pep12
T12 peptide: Biotin-LEDMPVDPDNAAYEM

asyn_113-127_124G [12] = molecular target: T13, asyn_113-127_124G (human); test: Ala-scan peptide ELISA, row E, run 2
T13 construct: substitution is already in the entry; also called pep13
T13 peptide: Biotin-LEDMPVDPDNEGYEM

asyn_113-127_124P [13] = molecular target: T14, asyn_113-127_124P (human); test: Ala-scan peptide ELISA, row E, run 2
T14 construct: substitution is already in the entry; also called pep14
T14 peptide: Biotin-LEDMPVDPDNEPYEM

asyn_113-127_125A [14] = molecular target: T15, asyn_113-127_125A (human); test: Ala-scan peptide ELISA, row E, run 2
T15 construct: substitution is already in the entry; also called pep15
T15 peptide: Biotin-LEDMPVDPDNEAAEM

asyn_113-127_126A [15] = molecular target: T16, asyn_113-127_126A (human); test: Ala-scan peptide ELISA, row E, run 2
T16 construct: substitution is already in the entry; also called pep16
T16 peptide: Biotin-LEDMPVDPDNEAYAM

asyn_113-127_127A [16] = molecular target: T17, asyn_113-127_127A (human); test: Ala-scan peptide ELISA, row E, run 2
T17 construct: substitution is already in the entry; also called pep17
T17 peptide: Biotin-LEDMPVDPDNEAYEA

[17] = molecular target: T18, biotinylated human alpha-synuclein (human, UniProt P37840 1-140); test: Ala-scan peptide ELISA, row E, run 2
asyn_113-127 [18] = molecular target: T1, asyn_113-127; test: Ala-scan peptide ELISA, row F, run 2
asyn_113-127_113A [19] = molecular target: T2, asyn_113-127_113A; test: Ala-scan peptide ELISA, row F, run 2
asyn_113-127_114A [20] = molecular target: T3, asyn_113-127_114A; test: Ala-scan peptide ELISA, row F, run 2
asyn_113-127_115A [21] = molecular target: T4, asyn_113-127_115A; test: Ala-scan peptide ELISA, row F, run 2
asyn_113-127_117A [22] = molecular target: T6, asyn_113-127_117A; test: Ala-scan peptide ELISA, row F, run 2
asyn_113-127_118A [23] = molecular target: T7, asyn_113-127_118A; test: Ala-scan peptide ELISA, row F, run 2
asyn_113-127_119A [24] = molecular target: T8, asyn_113-127_119A; test: Ala-scan peptide ELISA, row F, run 2
asyn_113-127_120A [25] = molecular target: T9, asyn_113-127_120A; test: Ala-scan peptide ELISA, row F, run 2
asyn_113-127_121A [26] = molecular target: T10, asyn_113-127_121A; test: Ala-scan peptide ELISA, row F, run 2
asyn_113-127_122A [27] = molecular target: T11, asyn_113-127_122A; test: Ala-scan peptide ELISA, row F, run 2
asyn_113-127_123A [28] = molecular target: T12, asyn_113-127_123A; test: Ala-scan peptide ELISA, row F, run 2
asyn_113-127_124G [29] = molecular target: T13, asyn_113-127_124G; test: Ala-scan peptide ELISA, row F, run 2
asyn_113-127_124P [30] = molecular target: T14, asyn_113-127_124P; test: Ala-scan peptide ELISA, row F, run 2
asyn_113-127_125A [31] = molecular target: T15, asyn_113-127_125A; test: Ala-scan peptide ELISA, row F, run 2
asyn_113-127_126A [32] = molecular target: T16, asyn_113-127_126A; test: Ala-scan peptide ELISA, row F, run 2
asyn_113-127_127A [33] = molecular target: T17, asyn_113-127_127A; test: Ala-scan peptide ELISA, row F, run 2
[34] = molecular target: T18, biotinylated human alpha-synuclein; test: Ala-scan peptide ELISA, row F, run 2
[35] = molecular target: human alpha-synuclein monomer (human, UniProt P37840 1-140); test: SPR (Biacore), antibody captured, monomer injected, 1:1 fit

- A450 (asyn_113-127 [1]): 0.242 OD
- A450 (asyn_113-127_113A [2]): 0.237 OD
- A450 (asyn_113-127_114A [3]): 0.243 OD
- A450 (asyn_113-127_115A [4]): 0.145 OD
- A450 (asyn_113-127_116A): 0.247 OD
- A450 (asyn_113-127_117A [5]): 0.267 OD
- A450 (asyn_113-127_118A [6]): 0.256 OD
- A450 (asyn_113-127_119A [7]): 0.045 OD
- A450 (asyn_113-127_120A [8]): 0.15 OD
- A450 (asyn_113-127_121A [9]): 0.223 OD
- A450 (asyn_113-127_122A [10]): 0.05 OD
- A450 (asyn_113-127_123A [11]): 0.259 OD
- A450 (asyn_113-127_124G [12]): 0.215 OD
- A450 (asyn_113-127_124P [13]): 0.047 OD
- A450 (asyn_113-127_125A [14]): 0.049 OD
- A450 (asyn_113-127_126A [15]): 0.272 OD
- A450 (asyn_113-127_127A [16]): 0.279 OD
- A450 [17]: 0.531 OD
- A450 (asyn_113-127 [18]): 0.148 OD
- A450 (asyn_113-127_113A [19]): 0.159 OD
- A450 (asyn_113-127_114A [20]): 0.139 OD
- A450 (asyn_113-127_115A [21]): 0.075 OD
- A450 (asyn_113-127_117A [22]): 0.163 OD
- A450 (asyn_113-127_118A [23]): 0.172 OD
- A450 (asyn_113-127_119A [24]): 0.045 OD
- A450 (asyn_113-127_120A [25]): 0.111 OD
- A450 (asyn_113-127_121A [26]): 0.143 OD
- A450 (asyn_113-127_122A [27]): 0.049 OD
- A450 (asyn_113-127_123A [28]): 0.151 OD
- A450 (asyn_113-127_124G [29]): 0.133 OD
- A450 (asyn_113-127_124P [30]): 0.047 OD
- A450 (asyn_113-127_125A [31]): 0.051 OD
- A450 (asyn_113-127_126A [32]): 0.169 OD
- A450 (asyn_113-127_127A [33]): 0.162 OD
- A450 [34]: 0.284 OD
- Kd [35]: 3.01 nM
B1: 20H4 (antibody, rat IgG2b, V domains shown)
VH: AVQLVESGGGLVQPKESLKISCAASGFTFSNAAMYWVRQAPGKGLELLARIRTKPNNYATYHADSVKGRFTISRDDSQSMVYLHMGNLKTEDTAMYYCTADMATGDYWGPGVMVTVSS
VL: DIQMTQSPPVLSVSVGDRVTLSCKASQNINKNLDWYQQKHGEAPKPLIYSTNNLQTGVPSRFSGSGSGTDYTLTISSLQPEDVATYYCYQYKSAWTFGGGTKLELR
notes: also called clone 20H4; rat 20H4
